The values below come from publication PMC10530652 (BME Frontiers, 2021).

One series concerns patients. The series is described as follows: Laboratory results in patients after FIB One delivery. Format: in vivo, human. The source says:
Table S1: Laboratory results. […] Statistical analysis using paired t-test. (Hb= haemoglobin; WCC= white cell count; ALT- alanine transaminase; CRP= C Reactive Protein).

Series [1] concerns MMP activity in ex vivo ventilated ovine lung. The series can be described thus: Ex vivo ovine lung model instilled with OPA supernatant, FCFM imaging. To be noted: 5 μM FIB One in 1 mL, OPA supernatant-instilled segments, n=3. On the procedure:
Ovine pulmonary adenocarcinoma (OPA) tissue was homogenised using a drill homogeniser, followed by lysis in cell lysis buffer. The supernatant was collected following centrifugation at 12,000 rpm for 20 min. The samples were adjusted to 1 mg mL^-1 total protein (determined by a Pierce BCA Total Protein Assay Kit (Thermo Fisher Scientific)). Zymography (as described above) was performed to confirm MMP activity across multiple OPA samples. Recombinant MMP-9 (2 nM) and recombinant pro-MMP-9 (0.5 nM) were included in the assay as positive controls. […] Following >30 min, the segments were bronchoscopically identified and microdosed with 5 μM FIB One in 1 mL. FCFM imaging was undertaken pre- and postinstillation (Cellvizio®, Mauna Kea Technologies). This was performed by passing a FCFM fibre into the disparate bronchopulmonary segments (up to 5 passes per bronchopulmonary segment to capture a regional representation of fluorescence), recording images at 12 frames per second and imaging for up to 5 minutes. Videos were analysed as described above. Each experimental set was normalised to the control segment (segment with 1 mL 0.9% NaCl instilled) which represents intrinsic autofluorescence.

Series [2] relates to Salmonella typhimurium strain TA100. The series is described as follows: Reduced test article AMES test, TA100. Format: cell-based. To be noted: up to 250 μg/well, in the absence and presence of rat liver S-9. On the procedure:
These conditions included treatments at concentrations up to 250 μg/well (a 20-fold pro rata reduction from the standard regulatory Ames assay maximum concentration), in the absence and in the presence of a rat liver metabolic activation system (S-9).

Series [3] concerns primary human lung tissue. The series can be described thus: Ex vivo fibre-based (FCFM) imaging of human lung tissue with FIB One. To be noted: FIB One 1 μM, imaged 10 min, FCFM 488 nm excitation, n=9. The method, then: Human lung tissue samples (lung tumour and noncancerous adjacent tissue) were obtained following surgical resection and stored at -80° C until use. Processing for multiwell plate reader assay or zymography analysis was conducted as follows: 1 mm×4 mm sections were homogenised in 400 μL MMP buffer in Precellys 2.8 mm ceramic bead tubes (VWR) using a Pecellys 24 homogeniser. Homogenised tissue was adjusted to 4 mg mL^-1 protein (determined by a Pierce BCA Total Protein Assay Kit (Thermo Fisher Scientific), following the manufacturer’s instructions). Multiwell plate reader assays were performed as previously described, replacing the MMP buffer and MMP enzymes for the homogenised and protein-adjusted lung tissue.
For ex vivo imaging, human lung tissue was sliced into 1 mm×4 mm sections and placed in the wells of a 96-well plate with 100 μL of MMP buffer and 30 nM MMP-13. […] The fluorescence for each sample was calculated by determining the average fluorescence per frame for each time point. […] Five independent patient specimens were collected and analysed. RFUs collected from off-target frames (showing motion artefact or absence of any fluorescence) were omitted during analysis.

(Pro-Phe-Gly-Nle-Lys-βAla)3 [FIB One]: the Potassium in the series with patients (blood 4-6 hours post FIB One delivery, mean (sd), baseline 4.3 (0.4)) was 4.2 (0.4) mmol/L. Further, the Urea with patients (blood 4-6 hours post FIB One delivery, mean (sd), baseline 4.6 (1.3)) is 4.7 (1.1) mmol/L. In the series with patients (blood 4-6 hours post FIB One delivery, mean (sd), baseline 5.4 (8.1)), the CRP is 5.2 (8.1) mg/L. In addition, the WCC in the series with patients (blood 4-6 hours post FIB One delivery, mean (sd), baseline 7.6 (1.1), p <0.0001) is 10.9 (2.9) x10^9/L. Also, in the series on patients (blood 4-6 hours post FIB One delivery, mean (sd), baseline 12.5 (5.3)), the Bilirubin is 12.4 (4.6) umol/L. In addition, in the series with patients (blood 4-6 hours post FIB One delivery, mean (sd), baseline 25.2 (18.2)), the ALT is recorded as 23.8 (15.2) IU/L. Further, the Creatinine in the series with patients (blood 4-6 hours post FIB One delivery, mean (sd), baseline 77.5 (11.5)) was 77.3 (12.1) umol/L. Further, the Sodium with patients (blood 4-6 hours post FIB One delivery, mean (sd), baseline 138.9 (2.7), p 0.01) is reported as 137.7 (3.2) mmol/L. This substance came in with a Hb in the series on patients (blood 4-6 hours post FIB One delivery, mean (sd), baseline 148.6 (11.3), p 0.0002) of 143 g/L. Also, the Platelets in the series with patients (blood 4-6 hours post FIB One delivery, mean (sd), baseline 221.5 (53.2)) is listed as 221.2 (52.6) x10^9/L. Further, in the series with patients (pre procedure vs 4-6 hours post FIB One delivery), the “clinically significant alterations of laboratory results” value is on record as “no clinically significant alterations”. In series [1], the “FIB One fluorescence in segments with high MMP activity” value is reported as “diffuse pattern of increased fluorescence”. Besides, in series [2], the mutation induction result is “did not induce mutation”. For the same substance, the “cleavage of FIB One” value in series [3] was “cleaved”.
